1 substance from PMC9367177 can be followed below.

The test deals with CC12.1 (human). The test can be described thus: SPR. On the technique in general: Surface plasmon resonance follows binding to a sensor surface in real time, without labels.
CC12.1 (human), sequence (heavy, as listed by the source, chain 1 of 2): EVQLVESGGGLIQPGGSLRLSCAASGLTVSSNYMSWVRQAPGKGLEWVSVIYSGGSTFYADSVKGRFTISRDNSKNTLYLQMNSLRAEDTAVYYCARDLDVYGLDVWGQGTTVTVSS
CC12.1 (human), sequence (light, as listed by the source, chain 2 of 2): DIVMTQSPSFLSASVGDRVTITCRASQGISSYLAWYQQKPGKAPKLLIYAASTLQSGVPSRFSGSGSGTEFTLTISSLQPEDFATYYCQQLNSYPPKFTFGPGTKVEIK

By Kd is commonly meant the constant that tells how readily two partners part at equilibrium. The low end stands for tighter binding, the high end for weaker binding. As to “SARS-CoV-2 RBD Alpha (B.1.1.7) (from UniProt P0DTC2) (domain or fragment)”, the Kd stood at 0.0144 µM.
